This note sets out measurements from US20110287023A1 (AstraZeneca / MedImmune, published 2011).

Experiment [1] deals with T1, HMG1 purified from calf (bovine) thymus (bovine, UniProt P10103 2-215).
T1 construct: also called Calf thymus HMGB1; thymus HMG1
T1 sequence (looked up): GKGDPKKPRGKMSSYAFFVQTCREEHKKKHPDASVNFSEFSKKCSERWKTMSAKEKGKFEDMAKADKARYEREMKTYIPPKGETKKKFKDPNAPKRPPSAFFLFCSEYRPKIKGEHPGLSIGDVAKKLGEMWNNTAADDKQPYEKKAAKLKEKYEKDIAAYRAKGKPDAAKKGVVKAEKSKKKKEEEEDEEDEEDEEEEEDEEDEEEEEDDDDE
Description: direct ELISA, calf thymus HMGB1 coated at 5 ug/mL, antibody at 10 ug/mL, anti-human kappa/lambda-HRP, OD 490. Here is the method: (§1) Binding to HMG1 vs. HMG2: Ultra high-binding ELISA plates (ThermoLab systems, #3855) were coated with either 5 ug/mL of Calf thymus HMGB1 or HMBG2 diluted in 10 mM Phosphate buffered saline (PBS), pH 7.2 and incubate overnight at 4 degrees. The plates were washed twice with Ca and Mg free PBS and 100 microliters of anti-HMGB1 antibody diluted in 10 mM PBS, pH 7.2+1% bovine serum albumin (BSA) to a final concentration of 10 ug/mL was added to each well and the plates were incubated 1 hour at room temperature. The wells were washed three times with 100 μl of PBS, pH 7.2. HRP labeled goat-anti-human IgG Kappa-chain (KPL, #14-10-10) and goat-anti-human IgG Lambda-chain (KPL, #14-10-11) were diluted in 10 mM PBS+1% BSA 1:1000 and 100 μl were added to each well and incubated for 1 hour at room temperature. The wells were then washed three times with 100 μl of PBS, pH 7.2. OPD substrate (Pierce chemical company, #34006) was prepared following the manufacturers instructions and 100 μl of prepared substrate was added to each well and the plates incubated at room temperature in the dark for 20-30 minutes. The reaction was stopped with the addition of 100 μl of 2M H₂SO₄, and the plates read on a plate reader at a wavelength of 490 nm.
For orientation: ELISA stands for enzyme-linked immunosorbent assay.

In experiment [2] the target is T2, recombinant HMG1 produced in E. coli as a calmodulin binding protein (CBP) fusion (human).
T2 construct: also called rHMG1; rHMGB1
T2 sequence (P09429 whole entry, the tested form may be a part): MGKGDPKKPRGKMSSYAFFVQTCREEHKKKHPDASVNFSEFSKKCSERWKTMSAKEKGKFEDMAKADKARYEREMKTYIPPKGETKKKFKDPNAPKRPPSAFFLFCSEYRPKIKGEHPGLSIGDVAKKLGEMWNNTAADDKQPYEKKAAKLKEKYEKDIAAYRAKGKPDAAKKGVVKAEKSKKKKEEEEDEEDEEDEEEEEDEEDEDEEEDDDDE
In words: BIAcore 3000, mAb amine-coupled to CM5, HMG1 injected, steady-state model. The procedure:
HMG1 Binding Affinity via BIAcore Analysis: All experiments were performed on a BIAcore 3000 instrument (BIAcore, Inc., Piscataway, N.J.). Briefly, each mAb was immobilized to a CM5 sensor chip using a standard amine coupling chemistry. Separately a reference (control) flow cell was also prepared. Two-fold, serial dilutions of HMG1 in instrument buffer were sequentially injected at a slow flow rate over the individual mAb and reference flow-cell surfaces. Following the binding and dissociation of HMG1, the mAbs surfaces were regenerated with a brief pulse of 1M NaCl-50 mM NaOH. At the end of each experiment, the binding curves were evaluated using a steady-state model available through the BIAevaluation software supplied by BIAcore, Inc. (Piscataway, N.J.).

The target in experiment [3] is T2, recombinant HMG1 produced in E. coli as …. In words: cell-based or functional assay.
The target of experiment [4] is T3, HMG1 B Box peptide amino acids 91-169.
T3 construct: also called HMG1 peptide 91-169
T3 peptide: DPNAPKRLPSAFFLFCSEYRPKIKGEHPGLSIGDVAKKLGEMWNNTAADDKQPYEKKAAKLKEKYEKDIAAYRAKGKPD
In words: ELISA, HMG1 B Box peptide 91-169 coated at 10 ug/ml, antibody titrated, OD 450. The procedure: (§2) The plate was then blocked with 4% milk powder dissolved in PBS at 37° C. for 1 hour. The blocking solution was removed and replaced with human anti-HMG1 antibodies at various concentrations (see FIGS. 5A-B). […] HRP activity was detected with Sureblue HRP substrate (KPL). Plates were read at 450 nm using a Kinetic Microplate Reader (Molecular Devices). […] After washing and blocking with 1% BSA in PBS, the biotinylated peptides were individually added into the avidin coated wells and incubated for 30 min at room temperature. The serial diluted antibody G4, S16 and S6 at the initial concentration at 10 μg/ml were then transferred into the wells followed by adding mouse anti human IgG-HRP conjugate (Pierce). Detection was accomplished by adding 50 μl of tetramethylbenzidine (TMB) substrate (KPL) and the absorbance was read at 450 nm.

Experiment [5] concerns the target T4, HMG1 B Box peptide amino acids 150-183.
T4 peptide: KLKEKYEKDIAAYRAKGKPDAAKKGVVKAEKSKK
In words: ELISA, HMG1 B Box peptide 150-183 coated at 10 ug/ml, antibody titrated, OD 450. Here is the method:
as §2

Experiment [6] addresses T5, HMG2 coated on ELISA plates (Bos taurus (Bovine), UniProt P40673 2-209).
T5 construct: also called HMGB2; HMBG2
T5 sequence: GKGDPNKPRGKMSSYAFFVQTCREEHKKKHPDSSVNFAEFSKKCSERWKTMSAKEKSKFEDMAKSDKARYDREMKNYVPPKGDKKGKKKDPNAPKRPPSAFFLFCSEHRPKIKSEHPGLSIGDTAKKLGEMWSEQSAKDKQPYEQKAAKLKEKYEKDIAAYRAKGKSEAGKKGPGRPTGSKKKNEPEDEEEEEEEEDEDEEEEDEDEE
In words: direct ELISA, HMGB2 coated at 5 ug/mL, OD 490. Here is the method: as §1

B1: human anti-HMG1 antibody S14 (antibody, IgG1, V domains shown)
VH: EVQLLESGGGLVQPGGSLRLSCAASGFTFSWYETGWVRQAPGKGLEWVSGISPSGGYTQYADSVKGRFTISRDNSKNTLYLQMNSLRAEDTAVYYCARSGVGATKIFDYWGQGTLVTVSS
VL: DIQMTQSPSSLSASVGDRVTIICRANERINTYLNWYQQKPGKAPKLLISGTSSLESGVPSRFSGSGSGTEFTLSISSLQPEDFASYYCQQSYSSPYTFGQGTNLEIR
notes: full length IgG1 made from a human Fab phage clone
Take B1: the binding result in experiment [1] is on record as “binds”; in experiment [4] it was “no binding (tested: 10 ug/ml (log 1.0))”; in experiment [5] it was “no binding (tested: 10 ug/ml (log 1.0))”; in experiment [6], “no binding (tested: 10 ug/mL (single concentration))”. Further, the Kd (in general, the free concentration of one partner at which half of the binding sites on the other are occupied at equilibrium, for simple one-to-one binding) in experiment [2] worked out at 205 nM. In experiment [3], the “IC50 IL-1β” value was found to be 0.0578 µg/mL. In experiment [3], the “IC50 IL-6” value is 0.191 nM. Further, the “IC50 TNF-α” value in experiment [3] was 0.0662 µg/mL.

B2: human anti-HMG1 antibody G35 (antibody, IgG1, V domains shown)
VH: EVQLLESGGGLVQPGGSLRLSCAASGFTFSWYKMVWVRQAPGKGLEWVSSIVPSGGITIYADSVKGRFTISRDNSKNTLYLQMNSLRAEDTAVYYCARVQQWLGRPYFDYWGQGTLVTVSS
VL: DIQMTQSPLSLPVTPGEPASISCRSSQSLLHGNGYNYLDWYLQRPGQSPQLLIYSGSNRASGVPDRFSGSGSGTDFTLKISRVEAEDVGVYYCMQSLQSRTFGQGTKVEIK
notes: as for B1
As for B2, the binding result in experiment [1] is given as “binds”; in experiment [5] it was “no binding (tested: 10 ug/ml (log 1.0))”; in experiment [6], “no binding (tested: 10 ug/mL (single concentration))”. Further, the dissociation constant Kd in experiment [2] came out at 242 nM. The “IC50 IL-6” value in experiment [3] worked out at 0.564 nM.

B3: human anti-HMG1 antibody G34 (antibody, IgG1, V domains shown)
VH: EVQLLESGGGLVQPGGSLRLSCAASGFTFSHYMMGWVRQAPGKGLEWVSRISPSGGGTVYADSVKGRFTISRDNSKNTLYLQMNSLRAEDTAVYYCARGGNWNYISYYYYYLDVWGKGTTVTVSS
VL: DIQMTQSPSSLSASVGDRVAITCRASQSIDTYLNWYQQKPGKAPKLLIYAASKLEDGVPSRFSGSGTGTDFTLTIRSLQPEDFASYFCQQSYSSPGITFGPGTKVEIK
notes: as for B1
As for B3, the binding result is “binds” in experiment [1], “no binding (tested: 10 ug/ml (log 1.0))” in experiment [4], “no binding (tested: 10 ug/ml (log 1.0))” in experiment [5] and “no binding (tested: 10 ug/mL (single concentration))” in experiment [6]. Further, the Kd in experiment [2] worked out at 67 nM. Besides, in experiment [3], the “IC50 IL-6” value worked out at 0.858 nM.

B4: human anti-HMG1 antibody G12 (antibody, IgG1, V domains shown)
VH: EVQLLESGGGLVQPGGSLRLSCAASGFTFSYYMMTWVRQAPGKGLEWVSSISPSGGYTIYADSAKGRFTISRDNSKNTLYLQMNSLRAEDTAVYYCARALSTGSFWDYWGQGTLVTVSS
VL: DIQMTQSPGTLSLSPGERATLSCRASESLTSTYVAWYQHKPGQAPRLLIHGGSTRATGIPVRFSGSGSGTDFTLTIATLEPEDFAVYYCQQYGSSPYTFGQGTKLEIK
notes: as for B1
Turning to B4, in experiment [1], the binding result is recorded as “binds”. The dissociation constant (Kd) in experiment [2] came to 73 nM. For the same molecule, in experiment [3], the “IC50 IL-1β” value came out at 5.91 µg/mL, the “IC50 IL-6” value was 1.12 nM, the “IC50 IL-12” value came out at 2.79 µg/mL and the “IC50 TNF-α” value came out at 0.796 µg/mL. The binding result in experiment [4] is reported as “no binding (tested: 10 ug/ml (log 1.0))”. Also, the binding result in experiment [5] is reported as “no binding (tested: 10 ug/ml (log 1.0))”. For the same molecule, in experiment [6], the binding result is “no binding (tested: 10 ug/mL (single concentration))”.

B5: human anti-HMG1 antibody G20 (antibody, IgG1, V domains shown)
VH: EVQLLESGGGLVQPGGSLRLSCAASGFTFSWYDMFWVRQAPGKGLEWVSWISPSGGYTKYADSVKGRFTISRDNSKNTLYLQMNSLRAEDTAMYYCARSGLDYYDSSGYLDAFDIWGQGTMVTVSS
VL: DIQMTQSPSSVSASVGDRVTITCRASQDVSIWLAWYQQKPGKAPKLLIFGASRLQSGVPSRFSGSRSGADFTLTIDSVQPEDFASYYCQQADSFPLTFGGGTKVEIK
notes: as for B1
In the case of B5, the binding result in experiment [1] is recorded as “binds”; in experiment [4] it was “no binding (tested: 10 ug/ml (log 1.0))”; in experiment [5], “no binding (tested: 10 ug/ml (log 1.0))”; in experiment [6], “no binding (tested: 10 ug/mL (single concentration))”. Also, the Kd in experiment [2] worked out at 114 nM. Moreover, the “IC50 IL-1β” value in experiment [3] amounted to 0.4 µg/mL. Moreover, in experiment [3], the “IC50 IL-6” value came out at 0.652 nM. Further, the “IC50 NO” value in experiment [3] came out at 20.4 µg/mL. For the same molecule, in experiment [3], the “IC50 TNF-α” value is 0.598 µg/mL.

B6: human anti-HMG1 antibody G9 (antibody, IgG1, V domains shown)
VH: EVQLLESGGGLVQPGGSLRLSCAASGFTFSSYDMFWVRQAPGKGLEWVSRISPSGGYTYYADSVKGRFTISRDNSKNTLYLQMNSLRAEDTAVYYCARLRYFDSRGYAFDIWGQGTMVTVSS
VL: DIQMTQSPGTLSLSPGERATLSCRASQSVRSSYLAWYQQKPGQAPRLLIYGASTRATGIPDRFSGSGSGTDFTLTISRLEPEDFAVYYCQQYGTSRWTFGQGTKVEIK
notes: as for B1
Regarding B6, the binding result is recorded as “binds” in experiment [1], “no binding (tested: 10 ug/ml (log 1.0))” in experiment [4], “no binding (tested: 10 ug/ml (log 1.0))” in experiment [5] and “no binding (tested: 10 ug/mL (single concentration))” in experiment [6]. Moreover, the dissociation constant Kd in experiment [2] was 125 nM. The “IC50 IL-1β” value in experiment [3] is 0.211 µg/mL. In addition, in experiment [3], the “IC50 IL-6” value was 0.246 nM. Besides, the “IC50 TNF-α” value in experiment [3] was 0.248 µg/mL.
